In paper PMC10786891, “Massively parallel profiling of RNA-targeting CRISPR-Cas13d” one finds Kd data, which are given here for 31 molecules.

Where a chain is given by its changes, count along the chain named. Names may count otherwise.

What is called Kd is the concentration at which binding is half-saturated. Lower therefore signals higher affinity.

To fix the notation:
T1: EsCas13d, nuclease-dead (Eubacterium siraeum, UniProt B0MS50, R295A;H300A;R849A;H854A)
T1 sequence: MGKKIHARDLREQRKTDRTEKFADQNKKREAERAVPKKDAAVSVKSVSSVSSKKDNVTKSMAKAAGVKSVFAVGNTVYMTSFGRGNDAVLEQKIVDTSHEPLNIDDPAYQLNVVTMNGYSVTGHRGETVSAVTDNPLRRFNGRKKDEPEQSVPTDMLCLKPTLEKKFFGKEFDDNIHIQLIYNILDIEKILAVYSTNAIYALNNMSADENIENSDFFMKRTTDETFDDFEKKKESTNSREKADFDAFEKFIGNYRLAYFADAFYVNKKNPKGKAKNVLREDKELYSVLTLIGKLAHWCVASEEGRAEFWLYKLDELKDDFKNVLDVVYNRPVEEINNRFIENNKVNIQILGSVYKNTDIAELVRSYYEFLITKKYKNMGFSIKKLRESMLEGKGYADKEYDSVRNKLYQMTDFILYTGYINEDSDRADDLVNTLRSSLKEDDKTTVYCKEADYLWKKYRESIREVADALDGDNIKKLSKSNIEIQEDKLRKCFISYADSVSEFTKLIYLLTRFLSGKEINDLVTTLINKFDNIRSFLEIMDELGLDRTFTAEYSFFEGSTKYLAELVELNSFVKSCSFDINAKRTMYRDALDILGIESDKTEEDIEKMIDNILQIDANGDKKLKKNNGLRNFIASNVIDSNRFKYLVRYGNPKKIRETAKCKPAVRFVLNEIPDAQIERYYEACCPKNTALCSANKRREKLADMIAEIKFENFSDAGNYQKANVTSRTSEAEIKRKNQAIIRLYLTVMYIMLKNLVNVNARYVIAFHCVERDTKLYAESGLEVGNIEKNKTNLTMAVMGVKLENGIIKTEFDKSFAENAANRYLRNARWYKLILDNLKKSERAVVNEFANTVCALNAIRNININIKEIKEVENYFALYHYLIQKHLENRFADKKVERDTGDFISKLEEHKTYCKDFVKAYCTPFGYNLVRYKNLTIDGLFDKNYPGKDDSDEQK

B1: target 3 complement block 3-7 (mixed)
RNA 1: CACCCGUGCAAAAUUGCAGGGGUCUAAAACGACCUGAAUAUUUCAGAUCAAA
RNA 2: GGGAAUGGAUCCACAUCUACGAAUUCGUUUUUGAUCUGAAAUAUAGUCCUCUGCAGAUCGGAAGAGCACACGU
B2: target 3 insA 3' of 6,insU 3' of 6 (mixed)
RNA 1: B1 RNA 1
RNA 2: GGGAAUGGAUCCACAUCUACGAAUUCGUUUUUGAUCUGAAAUAUUCAUAGGUCUGCAGAUCGGAAGAGCACACGU
B3: target 3 C6U,U22G (mixed)
RNA 1: B1 RNA 1
RNA 2: B1 RNA 2 with U30G, A45U, G46U, U47A, C48G, C49G
B4: target 3 C1A,G4U (mixed)
RNA 1: B1 RNA 1
RNA 2: B1 RNA 2 with A45U, G46C, U47A, C48U, C49G, C51A
B5: target 3 del14,del17 (mixed)
RNA 1: B1 RNA 1
RNA 2: GGGAAUGGAUCCACAUCUACGAAUUCGUUUUUGACUAAAUAUUCAGGUCUGCAGAUCGGAAGAGCACACGU
B6: target 3 C1G,U2G (mixed)
RNA 1: B1 RNA 1
RNA 2: B1 RNA 2 with A45U, G46C, U47A, C48G, C49G, U50G, C51G
B7: target 3 insU 3' of 16,insA 3' of 4 (mixed)
RNA 1: B1 RNA 1
RNA 2: GGGAAUGGAUCCACAUCUACGAAUUCGUUUUUGAUCUUGAAAUAUUCAGAGUCUGCAGAUCGGAAGAGCACACGU
B8: target 3 insA 3' of 8,insA 3' of 7 (mixed)
RNA 1: B1 RNA 1
RNA 2: B2 RNA 2 with U45A, C46U, U48C
B9: target 3 C1G,G3A (mixed)
RNA 1: B1 RNA 1
RNA 2: B1 RNA 2 with A45U, G46C, U47A, C48G, C49A, C51G
B10: target 3 C6U,U7C (mixed)
RNA 1: B1 RNA 1
RNA 2: B1 RNA 2 with A45C, G46U, U47A, C48G, C49G
B11: target 3 insC 3' of 4,insU 3' of 4 (mixed)
RNA 1: B1 RNA 1
RNA 2: B2 RNA 2 with U48G, A49C, G50U
B12: target 3 insA 3' of 22,insC 3' of 4 (mixed)
RNA 1: B1 RNA 1
RNA 2: B7 RNA 2 with U31A, G33U, A34G, U35A, C36U, U37C, A50C
B13: target 3 G4C,C6U (mixed)
RNA 1: B1 RNA 1
RNA 2: B1 RNA 2 with A45U, G46U, U47A, C49G
B14: target 3 C1G,G4U (mixed)
RNA 1: B1 RNA 1
RNA 2: B1 RNA 2 with A45U, G46C, U47A, C48U, C49G, C51G
B15: target 3 G3U,U8G (mixed)
RNA 1: B1 RNA 1
RNA 2: B1 RNA 2 with U44G, A45U, G46C, U47A, C48G, C49U
B16: target 3 G3C,U21G (mixed)
RNA 1: B1 RNA 1
RNA 2: B1 RNA 2 with U31G, A45U, G46C, U47A, C48G
B17: target 3 A5G,U7C (mixed)
RNA 1: B1 RNA 1
RNA 2: B1 RNA 2 with A45C, G46C, U47G, C48G, C49G
B18: target 1 A9G,C22G (mixed)
RNA 1: CACCCGUGCAAAAAUGCAGGGGUCUAAAACUGAGCGGAUAACCUCUCUAUGG
RNA 2: GGGAAUGGAUCCACAUCUACGAAUUCGUAGCAUAGAGAGGUUGUCCGCUCACCGAGAUCGGAAGAGCACACGU
B19: target 1 insU 3' of 18,insG 3' of 3 (mixed)
RNA 1: B18 RNA 1
RNA 2: GGGAAUGGAUCCACAUCUACGAAUUCGUACCAUAUGAGAGGUUAUCCGCUGCACCGAGAUCGGAAGAGCACACGU
B20: target 1 insU 3' of 15 (mixed)
RNA 1: B18 RNA 1
RNA 2: GGGAAUGGAUCCACAUCUACGAAUUCGUACCAUAGAGUAGGUUAUCCGCUCACCGAGAUCGGAAGAGCACACGU
B21: target 1 insC 3' of 9,insG 3' of 4 (mixed)
RNA 1: B18 RNA 1
RNA 2: GGGAAUGGAUCCACAUCUACGAAUUCGUACCAUAGAGAGGUUACUCCGCGUCACCGAGAUCGGAAGAGCACACGU
B22: target 1 A1C,U3C (mixed)
RNA 1: B18 RNA 1
RNA 2: B18 RNA 2 with G30C, G43A, U49C, A51C
B23: target 1 insU 3' of 17,insA 3' of 4 (mixed)
RNA 1: B18 RNA 1
RNA 2: B19 RNA 2 with U35G, G36U, U50A, G51U
B24: target 1 complement block 1-5 (mixed)
RNA 1: B18 RNA 1
RNA 2: B18 RNA 2 with G30C, G43A, G47C, C48G, U49A, C50G, A51U
B25: target 1 G12A,U19C (mixed)
RNA 1: B18 RNA 1
RNA 2: B18 RNA 2 with G30C, U33C, G40A, G43A
B26: target 1 insG 3' of 20,insG 3' of 20 (mixed)
RNA 1: B18 RNA 1
RNA 2: GGGAAUGGAUCCACAUCUACGAAUUCGUACCAGGUAGAGAGGUUAUCCGCUCACCGAGAUCGGAAGAGCACACGU
B27: target 1 C6G,G13U (mixed)
RNA 1: B18 RNA 1
RNA 2: B18 RNA 2 with G30C, G39U, G43A, C46G
B28: target 1 G15U,A16U (mixed)
RNA 1: B18 RNA 1
RNA 2: B18 RNA 2 with G30C, A36U, G37U, G43A
B29: target 1 C2G,U8C (mixed)
RNA 1: B18 RNA 1
RNA 2: B18 RNA 2 with G30C, G43A, U44C, C50G
B30: target 1 A9G,G12U (mixed)
RNA 1: B18 RNA 1
RNA 2: B18 RNA 2 with G30C, G40U
B31: target 1 insU 3' of 21,insG 3' of 2 (mixed)
RNA 1: B18 RNA 1
RNA 2: B19 RNA 2 with A32U, U33A, A34U, U35A, G51C, C52G

The series addresses T1, EsCas13d, nuclease-dead. Description: crRNA (strand 1, pre-loaded); Mg2+; 40 mM Tris-HCl pH 7.5, 150 mM NaCl, 6 mM MgCl2, 1 mM DTT, 0.1% Tween-20, 0.2 mg/ml BSA; 25 C; 10 min per concentration, then washed. Particulars: tags: His6-TwinStrep-SUMO cleaved; N-terminal SNAP kept (SNAP-Surface 488); label: 3' end held by stalled T7 RNA polymerase.
Molecule B1 returned a Kd of 74 ± 11 nM.

For B2, the Kd is 5.3 ± 0.39 nM.

B3: the Kd is 51.5 ± 6 nM.

Turning to B4, the Kd came out at 17.4 ± 4.35 nM. Compared with the last molecule, the Kd is about 3-fold lower.

In the case of B5, the dissociation constant (Kd) worked out at 41 ± 7 nM.

Molecule B6 returned a Kd of 12.8 ± 1.6 nM.

As for B7, binding was put at a Kd of 90 ± 44.5 nM.

B8 returned a Kd of 44.5 ± 5.5 nM.

B9: the Kd stood at 80 ± 40 nM.

For B10, the Kd stood at 65.5 ± 15.5 nM.

Molecule B11 displayed a Kd of 25 ± 3.25 nM.

In the case of B12, the Kd was 19.4 ± 4.55 nM.

Turning to B13, binding was put at a Kd of 20.2 ± 1.85 nM.

Consider B14, for which binding was put at a Kd of 13.4 ± 1.65 nM.

B15 gave a Kd of 68 ± 10 nM.

Take B16: the Kd was 70.5 ± 24 nM.

B17 displayed a Kd of 66.5 ± 11 nM.

For the molecule B18, binding was put at a Kd of 58 ± 18 nM.

Consider B19, for which the dissociation constant (Kd) came to 17.7 ± 0.6 nM.

As to B20, binding was put at a Kd of 8.7 ± 0.6 nM.

For the molecule B21, the Kd was 7.02 ± 0.26 nM.

For B22, the Kd is 18 ± 4 nM.

Regarding B23, binding was put at a Kd of 15.3 ± 1.4 nM.

For the molecule B24, the Kd was 14.3 ± 0.6 nM.

For B25, the Kd amounted to 22 ± 3 nM.

In turn, B26 showed a Kd of 60 ± 20 nM.

As to B27, the Kd is 37 ± 5 nM.

Molecule B28 showed a Kd of 15.6 ± 0.7 nM.

In the case of B29, the affinity, expressed as Kd, was 7.9 ± 0.4 nM. Against the preceding molecule, the Kd is about 2-fold lower.

B30 showed a Kd of 12.5 ± 0.6 nM. This Kd lies about 1.6-fold higher than the previous one.

Turning to B31, the affinity, expressed as Kd, was 26 ± 5 nM.
